Drawing on PMC6498484, this text covers binding for eleven sequences.

This data set concerns the target T1, PoxCxrA17-150 (Penicillium oxalicum HP7-1) (UniProt A0A2H4WV05).
T1 sequence: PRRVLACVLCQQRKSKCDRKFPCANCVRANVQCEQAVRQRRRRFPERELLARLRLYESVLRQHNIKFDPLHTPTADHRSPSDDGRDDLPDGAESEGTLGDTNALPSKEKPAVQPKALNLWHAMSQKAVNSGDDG
Nature of the data set: EMSA. Particulars: EMSA: 20 mM Tris-HCl pH 8.0, 50 mM KCl, 0.1 mg/mL BSA, 5% glycerol, 1 mM DTT, 1 ug salmon sperm DNA, ~50 ng probe, 30 min at 30 C; footprinting at 30 C. On the technique in general: A gel shift assay detects complexes by their altered migration in electrophoresis.
For “TGTGATGGATTGGATCAAAGATCAAAAGAGATGATGATCAATTTTGTTCTTTGAGGA (double strand) [PBM_POX05587-6]”, the binding result was “binds”.

For “AGGAGACGAACAAATGAAAAACAGTTGGCCAACAATTCAACCAAGACCGGCTTCCCTGGAATTGCGGGGAGGGGAGAGTCGTGAAAGTGGATAAGGCTCCTTAATTTTTTTTTTCCCTTCCTCCTGGCCATCGTGTTTTATGGAGGTTCGCTTCCGTCTTGACTATCCGCCGTCGCACTCTTAGTCTCCCCGTTGACCCTCTTTTTCTTCACATCGTCAGATCGTGATCGTTGATCGTTCGGTGCTCTTCTGCTTCTTTTGCTGCTCACCTCCTCCTCCCCCCAGCTGAGTCCTT (double strand) [PoxClrB-295]”, the binding entry is “binds”.

With “AGGAGACGAACAAATGAAAAACAGTTGGCCAACAATTCAACCAAGACCGGCTTCCCTGGAATTGCGGGGAGGGGAGAGTCGTGAAAGTGGATAAGGCTCCTTAATTTTTTTTTTCCCTTCCTCCTGGCCATCGTGTTTTATGGAGGTTCGCTTCCGTCTTGACTATCCGCCGTCGCACTCTTAGTCTCCCCGTTGACCCTCTTTTTCTTCACATCGTCAGATCGTGATCGTTGATCGTTCGGTGCTCTTCTGCTTCTTTTGCTGCTCACCTCCTCCTCCCCCCAGCTGA (double strand) [PBM_PoxClrB-6']”, the binding result is given as “binds”.

On to “GGTGAGCAGCAAAAGAAGCAGAAGAGCACCGAACGATCAACGATCACGATCTGACGATGTGAAGAAAAAGAGGGTCAACGGGGAGACTAAGAGTGCGACGGCGGATAGTCAAGACGGAAGCGAACCTCCATAAAACACGATGGCCAGGAGGAAGGGAAAAAAAAAATTAAGGAGCCTTATCCACTTTCACGACTCTCCCCTCCCCGCAATTCCAGGGAAGCCGGTCTTGGTTGAATTGTTGGCCAACTGTTTTTCATTTGTTCGTCTCCT (double strand) [PoxClrB-270]”, for which the binding result is given as “no binding”.

For “GACTCAGCTGGGGGGAGGAGGAGGTGAGCAGCAAAAGAAGCAGAAGAGCACCGAACGATCAACGATCACGATCTGACGATGTGAAGAAAAAGAGGGTCAACGGGGAGACTAAGAGTGCGACGGCGGATAGTCAAGACGGAAGCGAACCTCCATAAAACACGATGGCCAGGAGGAAGGGAAAAAAAAAATTAAGGAGCCTTATCCACTTTCACGACTCTCCCCTCCCCGCAATTCCAGGGAAGCCGGTCTTGGTTGAATTGTTGGCCAACTGTTTTTCATTTGTTCGTCTCCT (double strand) [PBM_PoxClrB-3']”, the binding result is reported as “binds”.

“CCCCTTTCATCAGATCCTCAAAGAACAAAATTGATCATCATCTCTTTTGATCTTTGATCCAATCCATCACA (double strand) [PBM1 probe]”: the binding result is “binds”.

In the case of “GAGAGGCGAATTGCTTCAGGATCCACCCAAGGAAGCAACTATATAAGAAGAGGTGCCATCACCTCGACTCTGGTGTTCATCATCCATTCCTTCCTCATCTCCTCCACCACCCC (double strand) [PBM2 probe]”, the binding result is listed as “no binding”.

Consider “AGGATCTGATGAAAGGGGGGTGGTGGAGGAGATGAGGAAGGAATGGATGATGAACACCAGAGTCGAGGTGATGGCACCTCTTCTTATATAGTTGCTTCCTTGGGTGGATCCTGAAGCAATTCGCCTCTC (double strand) [PBM_POX05587-6']”, for which the binding result is listed as “binds”.

As for “TGTGATGGATTGGATCAAAGATCAAAAGAGATGATGATCAATTTTGTTCTTTGAGGATCT (double strand) [PBM_POX05587-3]”, the binding entry is “binds”.

As to “TGGGGGGAGGAGGAGGTGAGCAGCAAAAGAAGCAGAAGAGCACCGAACGATCAACGATCACGATCTGACGATGTGAAGAAAAAGAGGGTCAACGGGGAGACTAAGAGTGCGACGGCGGATAGTCAAGACGGAAGCGAACCTCCATAAAACACGATGGCCAGGAGGAAGGGAAAAAAAAAATTAAGGAGCCTTATCCACTTTCACGACTCTCCCCTCCCCGCAATTCCAGGGAAGCCGGTCTTGGTTGAATTGTTGGCCAACTGTTTTTCATTTGTTCGTCTCCT (double strand) [PoxClrB-284]”, the binding result is “no binding”.

Consider “TTGAGGATCTGATGAAAGGGGGGTGGTGGAGGAGATGAGGAAGGAATGGATGATGAACACCAGAGTCGAGGTGATGGCACCTCTTCTTATATAGTTGCTTCCTTGGGTGGATCCTGAAGCAATTCGCCTCTC (double strand) [PBM_POX05587-3']”, for which the binding result is on record as “binds”.
